Assay results from patent US20180346538A1 (IMMATICS BIOTECHNOLOGIES, published 2018).

Target: T1, HLA-A*02:01 (human)
T1 construct: MHC monomer captured on streptavidin plates; also called peptide-receptive MHC molecules; MHC class I
Experiment: UV-ligand exchange ELISA (anti-b2m), yield grade

| peptide exchange yield | Binder |
| --- | --- |
| 50 to 75% | GLLDLPFRVGV |
| 50 to 75% | SLLNQDLHWSL |
